This note sets out measurements from the nanobody polyreactivity screen of Harvey et al. (2022).

A short description of the series: yeast display, Sf9 membrane polyspecificity reagent, FACS + sequencing; frameworks hold sequencing errors. The method in brief: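 Using colony PCR, genes from sorted yeast display clones were amplified, then sequenced on MiSeq at 2 × 250 and filtered by CDR length. The clones had been stained with 10% biotinylated, detergent-solubilized Sf9 membrane reagent for 1 hour at 4 °C and sorted by FACS into low and high (top ~1%) gates on anti-HA and streptavidin fluorescence. Polyreactivity labels come from the gate of origin.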
Consider “QVQHVESGAGLVQAGGSLRLSCAASGSTFFRANAMGLDRQEPGKERELVAAITGSGGRTYYADSVKGRFTISRDNAKNTVYLQMNSLKPEDTAVYYCATHGVSRPYDYWGPGTQVTVSS”, for which the “polyreactivity (PSR sort gate)” value is reported as “high polyreactivity”.

Regarding “QVQLVESGGGLVQAGGSLRLSCAASGSTFYANAMGWYRQAPGKERELVAAISRSGGRTYYADSVKGRFTISRDNAKNTVFLQMNSLKPEDTAVYYCAKAYHHSEFDYWGQGTQVTVSS”, the “polyreactivity (PSR sort gate)” value is “high polyreactivity”.

In the case of “QVQLVESGGGLVQAGGSLRLSSPASGRTFPGNPMGWYRQAPGKLRELVAAITRVRSTYYADSVKGRFTISRDNAKNTVYLQMNWLKPEDTVVYYCAADRLEGSYEDDATGFDDWGQGTQVTVSS”, the “polyreactivity (PSR sort gate)” value is “low polyreactivity”.

As to “QVQLVESGGGLVQAGGSLRLSCAASGFIFRYYAMRWYRQAPGKERELVATITYGGTSTSYADSVKGRFTISRDNAKNTVYLQMNSLKPEDSAVYYCATDRVSRVRPFWNVWRSNYWGQGTQVTVSS”, the “polyreactivity (PSR sort gate)” value is “high polyreactivity”.

“QVQLVESGGGLVQAGGSLRLSCAASGSTFHRYVMGWYRQAPGKERELVAVINSTGGSTYYADSVKGRFTISRDNAKNTVYLQMNSLKPEDTAVYYCARVTRRGPGYTTLYSRYDYWGQGTQVTVSS”: the “polyreactivity (PSR sort gate)” value is reported as “low polyreactivity”.

Turning to “QVQLVESVGGLVQAGGSLRLSCAASGSTFYNNAMGWYRQAPGKERELVAAISSGGGTYYADSVKGRFTISRDNAMNTVYLQMNSLKPEDTAVYYCAADFANTTHWGRIKRNDYWGQGTQVTVSS”, the “polyreactivity (PSR sort gate)” value is “low polyreactivity”.

In the case of “QVQLVESGGGLVQAGGSLRLSSAASGSTFRYYTMGWYRPAPGKERELVADITIGGSTYYADSVKGRFTISRDNAKNTVYLQMNSLKPEDSAVYYCAARSTGGRIFATGVAYDYWGQGTQVTVSS”, the “polyreactivity (PSR sort gate)” value is given as “low polyreactivity”.

In the case of “QVQLVESGGGLVQAGGSLRLSCAASGSTFFFNAMGWYRQAPGKERELVAAITGSGGSTYYADSVKGRFTISRDNAKNTVYLQMNSLKPEDTAVYYCNASSPYDYDWGQGTQVTVSS”, the “polyreactivity (PSR sort gate)” value is “low polyreactivity”.

For “QVQLVESGGGLVQAGASLRLSSAASGSTFKYYTMGWYRQAPGKERELVAAISFSGARTYYADSVKGRFTISRDNAKNTVYLQMNCLIPEDTAVYYCAKASSYSRRYEYWGQGTQVTVSS”, the “polyreactivity (PSR sort gate)” value is listed as “high polyreactivity”.

Consider “QVQLVESGGGLVHAGGSLRLSCAASGSTYGGNAMGWYRQAPGKETELVASITRSGGSTYYADSVKGRFTISRDNAKNTVYLQMNSLKPEDTSVYYCAAGKWYRSPWKYDYWGQGTQVTVSS”, for which the “polyreactivity (PSR sort gate)” value is “low polyreactivity”.

Turning to “QVQIVESGGGLFQAGGSLRLSCAASGGIFDFYAMGWYRPATGKEWELVAAITRSGSSTFYADSVKGRFTISRDNAKNTVYLQMNILKPEDTAVYYCAAPYSYFAVYYGYIVEYDYWGQGTQVTVSS”, the “polyreactivity (PSR sort gate)” value is “low polyreactivity”.

In the case of “QVQLVESGGGLVQAGGSLRLSCAASGSTFSYYAMGWYRQAPGKERDLVASIDGSTGSTYYADSVKGRFTISRDNAKTTVYLQMNILKPEDTAVYYFNAESLDYYDNAYEYWGQGTQVTVSS”, the “polyreactivity (PSR sort gate)” value is recorded as “low polyreactivity”.

On to “QVQLVESGGGLVQAGGSLRLSFAASGRIFGTNTMGWYRQATGKERELVAGISSSGDSTYYADSVKGRFTISRDKAKNTVYLQINSLKPEDTAVYYCAARKGEFWLPQGGYNYWGQGTQVTVSS”, for which the “polyreactivity (PSR sort gate)” value was “low polyreactivity”.

Consider “QVQLVESGGGLVQAGGSLRLSCAASGFTFRIYDMGWYRQAPGKERELVAAITNGGSTDYAYSVKGRFTISRDNAKNTVYLQMNSLKTEDNAVYYCAADVTYQVYDLVSVWYDYWGQGTQVTVSS”, for which the “polyreactivity (PSR sort gate)” value was “low polyreactivity”.

“QVQLEESGGGLVQAGGSLRLSCAASGITFGFYAMGWYRQAPGKERELVASITWRGGSTYYADSVKGRFTISRVNAKNTVYLHMNSLKPEDTAVYYCAAEQYVFRPRAQEITSYDYWGQGTQVTVSS”: the “polyreactivity (PSR sort gate)” value is on record as “high polyreactivity”.

For the sequence “QVQLVESGGGLVQAGGSLRLSCAASGRTFYRYAMGWYRQAPGKERELVAAIRWSGGSTYYADSVKGRFTISRDNAKNTVYLQMNSLKPEDTAVYYCAKDTFRGYSPVKYDFWGQGTQVTVSS”, the “polyreactivity (PSR sort gate)” value is “low polyreactivity”.

Turning to “QVQLVESGGGLVQAGGSLRLSCAASGITFSRYAMGWYRQAPVKERELVAAITWDGGRTYYADSVKGRFTISRANAKNTVYLQMNSRKPEDTADYYCSAGSAWWYYWGQGTQVTVSS”, the “polyreactivity (PSR sort gate)” value is listed as “high polyreactivity”.

Regarding “QVQLVDSGGGLVQAGGSLRLSCAASGRTFAYNDMGWYRQAPGKERELVAAISWSDGTTYYADSVKWRFTISRDNAKNTVYLQMNRLKPEDTAVYYCAAVSIYWGQGTQVTVSS”, the “polyreactivity (PSR sort gate)” value is given as “low polyreactivity”.

Consider “QVQLVESGGGLVQAGGSLRLSCAASGFTFRKNAKGWYRQAPGKERELVAAISSGSGSTYYADSVKGRFTISRDNAKNTVYLQMNSLKPEDNAVYYCNAEAYYTTGYPTSDVFDRYDYWGQGTQVTVSS”, for which the “polyreactivity (PSR sort gate)” value is “low polyreactivity”.

“QVQLVESGGGLVQAGGSLRLSCAASGSIFYLYTMGWNRQAPGKERELVAAITAISGSTYYADSVKGRFTISRDNAKNTVYLQINSLKPEDTAVYYCAAKYYRHRWQLYNYWGQGTQVTVSS”: the “polyreactivity (PSR sort gate)” value was “high polyreactivity”.

As for “QVQLVESGGGLVQAGGSLRLSCAASGNTFTTYAMGWYRQAPGKERELVAAISRRGGSTYYADSVKGRFTISRDNAKNTVYLQMNSLKPDDTAVYYCARRYFYTYGYWGQGTQVTVSS”, the “polyreactivity (PSR sort gate)” value is “high polyreactivity”.

As for “QVQLVESGGRLVQAGGSLLLSCAASGFTFDDYAMGRYRQAPGTERELVASITTSGASKYYADSVKGRFTISRDNAKNPVYLQMNSLKPEDTAVYYCAVDNDSYTSPRAGDDYWGQGTQVTVSS”, the “polyreactivity (PSR sort gate)” value was “low polyreactivity”.

With “QVQLVESGGGLVQAGGSLRLSCAASGNTFYRYAMGWYRQAPGKERELVAAISWSGSSTYYADSVKGRFTISRDNAKNTVYLQMNSLKPEDTAVYYCAAGTYDGGYHYDYWGQGTQVTVSS”, the “polyreactivity (PSR sort gate)” value is listed as “high polyreactivity”.

Regarding “QVQLVESGGGLVQAGGSLRLSCAASGITIVYYTMGWYIQAPGKERELVASITWDGGSTYYADSVKGRFTISRDNAKNTVYLQMNSLKPEDTAVYYCNRDRVSGGKYNYWGQGTQVTVSS”, the “polyreactivity (PSR sort gate)” value is recorded as “low polyreactivity”.

Consider “QVQLVESGGGLVQAGGSLRLSCAASGSIFPFYAMGWYIQAPGKERELVAAISDRGGSTYYADSVKGRFTISRDNAKNTVYLQMNSLKPEDTAVYYCAADKYSQWSSHTRVRYDYWGQGTQVTVSS”, for which the “polyreactivity (PSR sort gate)” value is “low polyreactivity”.

In the case of “QGQLVESGGGLVQAGGSLRLSCAASGLTFSPNAMGWYRQEPGKERELVAAISSSGGRTNYADSVKGRFTISRDNAKNPVYLLMNSLKPEDTAVYYCFTNSFYEDDDWGQGTQVTVSS”, the “polyreactivity (PSR sort gate)” value is reported as “high polyreactivity”.

Take “QVQLVESGGGLVQAGGSLRLTCAASGSIFRTNTMGWYRQAPGKVRELVAAITAIGDSTYYADSVKGRFTISRDNANNTVYLQMNSLKPEDTAVYYCAAEKVSWGYHFYSSYDYWGQGTQVTVSS”: the “polyreactivity (PSR sort gate)” value was “low polyreactivity”.

For the sequence “QVQLVESGGGLVQAGGSHRLSCAASGSTFNLNAMGWYRQAPGKERELVAAIDSGGRTNYADSVKGRFTISRDNAKNTVYLQMNSLKPEDTAVYYCADDVYAYPGSWYDYWGQGTQVTVSS”, the “polyreactivity (PSR sort gate)” value is on record as “low polyreactivity”.

For the sequence “QVQLVESGGGVVQAGGSLRLSCAASGITFGWDAMGWYRQAPGKERELVASISSSGSTNYADSVKGRFTISRDNAKNTVYLQMNSLKPEDTAVYYCNKDYLLRHYYIYVIEGDYWGQGTQVTVSS”, the “polyreactivity (PSR sort gate)” value is reported as “low polyreactivity”.

With “QVQLVESGGGLVQAGGSLRLSCAASGSTFGGYAMGWYRQAPGKERELVAAISSSGGITYYADSVKGRFTISRDNAKNTVYLQMNSLKPEDTAVYYCAAPLGGGARWGRWWLYDSWGQGTQVTVSS”, the “polyreactivity (PSR sort gate)” value is “low polyreactivity”.
